Measured values reported in patent US20160206715A1.

Target: T1, rMuIL15Ra (murine IL-15 receptor R&D Systems) (murine), Q60819
T1 chain: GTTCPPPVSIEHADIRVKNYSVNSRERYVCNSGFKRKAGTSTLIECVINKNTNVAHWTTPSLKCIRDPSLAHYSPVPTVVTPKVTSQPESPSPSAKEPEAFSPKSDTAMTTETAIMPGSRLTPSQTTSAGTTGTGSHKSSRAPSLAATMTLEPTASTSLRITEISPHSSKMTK
Test: BLI (ForteBio), biotinylated rMuIL15Ra on SA biosensors, rMuIL15 in solution, 1:1 fit
Details: remark: other sources report otherwise

B1: rMuIL15 (R&D Systems), P48346 49-162 (ligand, murine, UniProt P48346 49-162, looked up)
chain: NWIDVRYDLEKIESLIQSIHIDTTLYTDSDFHPSCKVTAMNCFLLELQVILHEYSNMTLNETVRNVLYLANSTLSSNKNVAESGCKECEELEEKTFTEFLQSFIRIVQMFINTS
modifications: here or on the partner: biotinylated with EZ-Link NHS-LC-Biotin (sites not given)
B1 gave a Kd of 5.57 nM.
